In article PMC9352680, “A comprehensive thermodynamic model for RNA binding by the Saccharomyces cerevisiae Pumilio protein PUF4”:

T1: PUF4 RNA-binding domain (Saccharomyces cerevisiae, UniProt P25339 537-888)
T1 sequence: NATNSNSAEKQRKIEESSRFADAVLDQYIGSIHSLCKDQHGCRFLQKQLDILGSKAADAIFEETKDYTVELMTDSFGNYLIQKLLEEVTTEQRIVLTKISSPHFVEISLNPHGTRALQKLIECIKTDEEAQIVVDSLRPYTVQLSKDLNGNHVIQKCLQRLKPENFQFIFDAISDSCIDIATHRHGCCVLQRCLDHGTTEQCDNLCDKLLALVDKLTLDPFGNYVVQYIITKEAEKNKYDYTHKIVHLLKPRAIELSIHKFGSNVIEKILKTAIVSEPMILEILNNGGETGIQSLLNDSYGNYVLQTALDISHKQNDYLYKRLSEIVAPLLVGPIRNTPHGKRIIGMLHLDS

B1: Id_ii_S4_P4E.4_K4.3_C4.2_[T-1G]_H4.3_A4.1_F4.1_T4.2_[G10T] (ssRNA)
RNA: UUUGACAACUGAUCGUUCUUUCUCGACACUAUUAUUUUCUUUCUCGAUCAGUUGUCUUU
B2: Id_ii_S4_P4E.4_K4.3_C4.2_H4.3_A4.1_F4.1_T4.2_[G10A]_[T11C] (ssRNA)
RNA: UUUGACAACUGAUCGUUCUUUCUCUACACUAUUAACUUCUUUCUCGAUCAGUUGUCUUU
B3: Id_ii_S4_P4E.4_K4.3_C4.2_[T-1A]_H4.3_A4.1_F4.1_T4.2_[G10C] (ssRNA)
RNA: UUUGACAACUGAUCGUUCUUUCUCAACACUAUUACUUUCUUUCUCGAUCAGUUGUCUUU
B4: Id_ii_S4_P4E.4_K4.3_C4.2_[T-1C]_H4.3_A4.1_F4.1_T4.2_[G10T]_[T11A] (ssRNA)
RNA: UUUGACAACUGAUCGUUCUUUCUCCACACUAUUAUAUUCUUUCUCGAUCAGUUGUCUUU
B5: Id_ii_S4_P4E.4_K4.3_C4.2_H4.3_A4.1_F4.1_T4.2_[G10C]_[T11A] (ssRNA)
RNA: UUUGACAACUGAUCGUUCUUUCUCUACACUAUUACAUUCUUUCUCGAUCAGUUGUCUUU
B6: Id_ii_S4_P4E.4_K4.3_C4.2_[T-1C]_H4.3_A4.1_F4.1_T4.2_[G10C]_[T11C] (ssRNA)
RNA: UUUGACAACUGAUCGUUCUUUCUCCACACUAUUACCUUCUUUCUCGAUCAGUUGUCUUU
B7: Id_ii_S4_P4E.4_K4.3_C4.2_[T-1C]_H4.3_A4.1_F4.1_T4.2_[G10A] (ssRNA)
RNA: UUUGACAACUGAUCGUUCUUUCUCCACACUAUUAAUUUCUUUCUCGAUCAGUUGUCUUU
B8: Id_ii_S4_P4E.4_K4.3_C4.2_[T-1A]_H4.3_A4.1_F4.1_T4.2_[T11C] (ssRNA)
RNA: UUUGACAACUGAUCGUUCUUUCUCAACACUAUUAGCUUCUUUCUCGAUCAGUUGUCUUU
B9: Id_ii_S4_P4E.4_K4.3_C4.2_[T-1A]_H4.3_A4.1_F4.1_T4.2 (ssRNA)
RNA: UUUGACAACUGAUCGUUCUUUCUCAACACUAUUAGUUUCUUUCUCGAUCAGUUGUCUUU
B10: Id_ii_S4_P4E.4_K4.3_C4.2_[T-1C]_H4.3_A4.1_F4.1_T4.2_[G10C] (ssRNA)
RNA: UUUGACAACUGAUCGUUCUUUCUCCACACUAUUACUUUCUUUCUCGAUCAGUUGUCUUU
B11: Id_ii_S4_P5E.2_K5.1_C5.2_[C-2G]_[T-1C]_H5.1_A5.1_F5.1_T5.2_[T11A]_[A12T] (ssRNA)
RNA: UUUGACAACUGAUCGUUCUUUCUGCUGUAUUAUUAAUUUCUUUCUCGAUCAGUUGUCUUU
B12: Id_ii_S4_P5E.2_K5.1_C5.2_[C-2A]_H5.1_A5.1_F5.1_T5.2_[A12G] (ssRNA)
RNA: UUUGACAACUGAUCGUUCUUUCUAUUGUAUUAUUAUGUUCUUUCUCGAUCAGUUGUCUUU
B13: Id_ii_S4_P5E.2_K5.1_C5.2_[C-2T]_[T-1A]_H5.1_A5.1_F5.1_T5.2_[T11A] (ssRNA)
RNA: UUUGACAACUGAUCGUUCUUUCUUAUGUAUUAUUAAAUUCUUUCUCGAUCAGUUGUCUUU
B14: Id_ii_S4_P5E.2_K5.1_C5.2_[C-2A]_H5.1_A5.1_F5.1_T5.2_[T11A]_[A12C] (ssRNA)
RNA: UUUGACAACUGAUCGUUCUUUCUAUUGUAUUAUUAACUUCUUUCUCGAUCAGUUGUCUUU
B15: Id_ii_S4_P5E.2_K5.1_C5.2_[C-2G]_[T-1C]_H5.1_A5.1_F5.1_T5.2_[A12C] (ssRNA)
RNA: UUUGACAACUGAUCGUUCUUUCUGCUGUAUUAUUAUCUUCUUUCUCGAUCAGUUGUCUUU
B16: Id_ii_S4_P5E.2_K5.1_C5.2_[C-2T]_[T-1A]_H5.1_A5.1_F5.1_T5.2_[T11G]_[A12T] (ssRNA)
RNA: UUUGACAACUGAUCGUUCUUUCUUAUGUAUUAUUAGUUUCUUUCUCGAUCAGUUGUCUUU
B17: Id_ii_S4_P5E.2_K5.1_C5.2_[C-2T]_H5.1_A5.1_F5.1_T5.2_[T11A]_[A12T] (ssRNA)
RNA: UUUGACAACUGAUCGUUCUUUCUUUUGUAUUAUUAAUUUCUUUCUCGAUCAGUUGUCUUU
B18: Id_ii_S4_P5E.2_K5.1_C5.2_[C-2T]_[T-1C]_H5.1_A5.1_F5.1_T5.2_[T11A]_[A12G] (ssRNA)
RNA: UUUGACAACUGAUCGUUCUUUCUUCUGUAUUAUUAAGUUCUUUCUCGAUCAGUUGUCUUU
B19: Id_ii_S4_P5E.2_K5.1_C5.2_[C-2G]_H5.1_A5.1_F5.1_T5.2_[T11A] (ssRNA)
RNA: UUUGACAACUGAUCGUUCUUUCUGUUGUAUUAUUAAAUUCUUUCUCGAUCAGUUGUCUUU
B20: Id_ii_S4_P5E.2_K5.1_C5.2_[C-2T]_[T-1A]_H5.1_A5.1_F5.1_T5.2_[T11A]_[A12C] (ssRNA)
RNA: UUUGACAACUGAUCGUUCUUUCUUAUGUAUUAUUAACUUCUUUCUCGAUCAGUUGUCUUU
B21: Id_ii_S4_P5E.2_K5.1_C5.2_[C-2T]_[T-1C]_H5.1_A5.1_F5.1_T5.2_[T11A]_[A12C] (ssRNA)
RNA: UUUGACAACUGAUCGUUCUUUCUUCUGUAUUAUUAACUUCUUUCUCGAUCAGUUGUCUUU
B22: Id_ii_S4_P5E.2_K5.1_C5.2_[T-1G]_H5.1_A5.1_F5.1_T5.2_[T11G]_[A12T] (ssRNA)
RNA: UUUGACAACUGAUCGUUCUUUCUCGUGUAUUAUUAGUUUCUUUCUCGAUCAGUUGUCUUU
B23: Id_ii_S4_P5E.2_K5.1_C5.2_[C-2G]_H5.1_A5.1_F5.1_T5.2_[A12T] (ssRNA)
RNA: UUUGACAACUGAUCGUUCUUUCUGUUGUAUUAUUAUUUUCUUUCUCGAUCAGUUGUCUUU
B24: Id_ii_S4_P5E.2_K5.1_C5.2_[C-2T]_[T-1G]_H5.1_A5.1_F5.1_T5.2_[T11A]_[A12C] (ssRNA)
RNA: UUUGACAACUGAUCGUUCUUUCUUGUGUAUUAUUAACUUCUUUCUCGAUCAGUUGUCUUU
B25: Id_ii_S4_P5E.2_K5.1_C5.2_[C-2T]_H5.1_A5.1_F5.1_T5.2_[A12C] (ssRNA)
RNA: UUUGACAACUGAUCGUUCUUUCUUUUGUAUUAUUAUCUUCUUUCUCGAUCAGUUGUCUUU
B26: Id_ii_S4_P5E.2_K5.1_C5.2_[C-2T]_[T-1G]_H5.1_A5.1_F5.1_T5.2_[T11G]_[A12C] (ssRNA)
RNA: UUUGACAACUGAUCGUUCUUUCUUGUGUAUUAUUAGCUUCUUUCUCGAUCAGUUGUCUUU
B27: Id_ii_S4_P5E.2_K5.1_C5.2_[T-1G]_H5.1_A5.1_F5.1_T5.2_[T11G]_[A12C] (ssRNA)
RNA: UUUGACAACUGAUCGUUCUUUCUCGUGUAUUAUUAGCUUCUUUCUCGAUCAGUUGUCUUU
B28: Id_ii_S4_P5E.2_K5.1_C5.2_[C-2T]_[T-1G]_H5.1_A5.1_F5.1_T5.2_[T11G]_[A12T] (ssRNA)
RNA: UUUGACAACUGAUCGUUCUUUCUUGUGUAUUAUUAGUUUCUUUCUCGAUCAGUUGUCUUU
B29: Id_ii_S4_P5E.2_K5.1_C5.2_[C-2A]_[T-1C]_H5.1_A5.1_F5.1_T5.2_[A12C] (ssRNA)
RNA: UUUGACAACUGAUCGUUCUUUCUACUGUAUUAUUAUCUUCUUUCUCGAUCAGUUGUCUUU
B30: Id_ii_S4_P5E.2_K5.1_C5.2_[T-1A]_H5.1_A5.1_F5.1_T5.2_[T11A]_[A12T] (ssRNA)
RNA: UUUGACAACUGAUCGUUCUUUCUCAUGUAUUAUUAAUUUCUUUCUCGAUCAGUUGUCUUU
B31: Id_ii_S4_P5E.2_K5.1_C5.2_[C-2T]_[T-1G]_H5.1_A5.1_F5.1_T5.2_[A12C] (ssRNA)
RNA: UUUGACAACUGAUCGUUCUUUCUUGUGUAUUAUUAUCUUCUUUCUCGAUCAGUUGUCUUU
B32: Id_ii_S4_P5E.2_K5.1_C5.2_[T-1C]_H5.1_A5.1_F5.1_T5.2_[A12T] (ssRNA)
RNA: UUUGACAACUGAUCGUUCUUUCUCCUGUAUUAUUAUUUUCUUUCUCGAUCAGUUGUCUUU
B33: Id_ii_S4_P5E.2_K5.1_C5.2_[C-2A]_[T-1C]_H5.1_A5.1_F5.1_T5.2_[T11A]_[A12T] (ssRNA)
RNA: UUUGACAACUGAUCGUUCUUUCUACUGUAUUAUUAAUUUCUUUCUCGAUCAGUUGUCUUU
B34: Id_ii_S4_P5E.2_K5.1_C5.2_[C-2T]_[T-1G]_H5.1_A5.1_F5.1_T5.2_[T11A]_[A12T] (ssRNA)
RNA: UUUGACAACUGAUCGUUCUUUCUUGUGUAUUAUUAAUUUCUUUCUCGAUCAGUUGUCUUU

The binders below were run against T1, PUF4 RNA-binding domain (assay: Mg; RNA-MaP; 20 mM Na-HEPES pH 7.4, 30 mM KOAc, 0.75 mM MgCl2, 0.1% Tween-20, 5% glycerol, 0.1 mg/mL BSA, 2 mM DTT; 25 C; 0.0125-409.6 nM protein). Conditions: tags: N-His6-TEV cleaved; C-SNAP kept, Cy3B-labelled; label: tethered on chip by stalled RNA polymerase.
UCUCUUUAUAUUUUUAUCUCUU (ssRNA) [Ib_S1_P5E.1_K5.1_C5.1_H5.1_[G2A]_A5.1_[A7T]_F5.1_T5.1] gave a Kd of 742 nM. UCUCUUUGCAAUAUUAUCUCUU (ssRNA) [Ib_S1_P5E.1_K5.1_C5.1_H5.1_[T3C]_A5.1_[T5A]_F5.1_T5.1] was tested, and the Kd was 1370 nM. With B1 the Kd was greater than 2300 nM. B2 was tested, and the Kd was 1210 nM. B3 gave a Kd greater than 2300 nM. B4 gave a Kd of 728 nM. For B5, the Kd was 944 nM. B6 gave a Kd of 1360 nM. B7 gave a Kd greater than 2300 nM. B8 showed a Kd greater than 2300 nM. B9 showed a Kd greater than 2300 nM. B10 was tested, and the Kd was greater than 2300 nM. In the case of B11, the Kd is reported as 3.13 nM. B12 gave a Kd of 4.86 nM. B13 was tested, and the Kd was 10.7 nM. For B14, the Kd was 5.14 nM. B15 was tested, and the Kd was 5.29 nM. B16 gave a Kd of 4.76 nM. For B17, the Kd was 2.21 nM. In the case of B18, the Kd is reported as 34.5 nM. With B19 the Kd was 6.57 nM. Work on B20 yielded a Kd of 9.12 nM. In the case of B21, the Kd is reported as 2.92 nM. Binder B22 has a Kd of 1.95 nM. For B23, the Kd was 1.91 nM. B24 gave a Kd of 3.09 nM. B25 showed a Kd of 2.29 nM. B26 gave a Kd of 2.47 nM. B27 gave a Kd of 1.94 nM. For B28, the Kd was 1.51 nM. B29 was tested, and the Kd was 2.14 nM. In the case of B30, the Kd is reported as 3.49 nM. In the case of B31, the Kd is reported as 1.56 nM. With B32 the Kd was 1.38 nM. B33 was tested, and the Kd was 2.62 nM. In the case of B34, the Kd is reported as 1.56 nM. With UCUCUUUGCAUCAUUAUCUCUU (ssRNA) [Ib_S1_P5E.1_K5.1_C5.1_H5.1_[T3C]_A5.1_[T6C]_F5.1_T5.1] the Kd was 1980 nM.
